Source: paper PMC10306066

Molecular target: Ralstonia solanacearum lectin (Ralstonia solanacearum)
Assay: crystal structure

“Ralstonia solanacearum lectin (natural protein)” showed a stoichiometry N of 3.
